Assay results reported in patent US7005283B2, “Cytochrome P450 oxygenases and their uses” (Washington State University Research Foundation, priority 1999, dated 2006).

What was measured:
[1] = assay type: binding, Saccharomyces cerevisiae
From the text: CO-sensor of the 19 full-length cytochrome P450 clones from Taxus, thus far obtained, ten have yielded detectable CO-difference spectra (Table 2). […] These alternative expression systems for cytochrome P450 genes include the yeast Pichia pastoris, for which expression vectors and hosts are commercially available (Invitrogen, Carlsbad, Calif.), as well as established E. coli and baculovirus-insect cell systems for which general expression procedures have been described (Barnes, Methods Enzymol. 272:1–14, 1996;Gonzalez et al., Methods Enzymol. 206:93–99, 1991;Lee et al., Methods Enzymol. 272:86–98, 1996;and Lupien et al., Arch. Biochem. Biophys. 368:181–192, 1999).
Appropriate restriction sites were introduced by standard PCR methods (Innis et al., PCR Protocols: A Guide to Methods and Applications, Academic Press, San Diego, Calif., 1990) immediately upstream of the ATG start codon and downstream of the stop codon of all full-length cytochrome P450 clones. These modified amplicons were gel-purified, digested with the corresponding restriction enzymes, and then ligated into the expression vector pYeDP60. The vector/insert junctions were sequenced to ensure that no errors had been introduced by the PCR construction. Verified clones were transformed into yeast using the lithium acetate method (Ito et al., J. Bacteriol. 153:163–168, 1983). Isolated transformants were grown to stationary phase in SGI medium (Pompon et al., Methods Enzymol. 272:51–64, 1996), and used as inocula for a large-scale expression culture grown in YPL medium (Pompon et al., Methods Enzymol. 272:51–64, 1996). Approximately 24 hours after induction of cytochrome P450 expression with galactose (to 10% final concentration), a portion of the yeast cell culture was harvested by centrifugation. One-half of the culture was treated with carbon monoxide, and the cytochrome P450 CO-difference spectrum was recorded directly (using untreated cells as a control) by spectrophotometry (Omura and Sato, J. Biol. Chem. 239:2370–2378, 1964).

[2] = In vivo assay of yeast cells expressing recombinant oxygenases, radio-HPLC, substrate taxadiene; assay type: cell-based, Saccharomyces cerevisiae; settings: assayed with Taxadiene; graded symbols, key not given
From the text: (§1) Transformed yeast cells that fimctionally express a recombinant cytochrome P450 gene from Taxus (by CO-difference spectrum) can be tested in vivo for their ability to oxygenate (hydroxylate or epoxidize) taxoid substrates fed exogenously to the cells, thereby eliminating the need for microsome isolation for preliminary in vitro assays.
(§2) Accordingly, several clones of the available full-length clones were expressed in induced yeast host cells.
(§3) Isolated transformants for each full-length cytochrome P450 clone shown to express a functional enzyme by CO-difference spectrum (ten clones) were grown to stationary phase in 2 mL SGI medium at 30° C. and used to inoculate a 10-mL expression culture (in YPL medium). Approximately 8 hours after induction, cells were harvested by centrifugation (10 minutes at 1500 rpm), and the pellet was resuspended in 2 mL of fresh YPL medium.
(§4) To eliminate additional complication and uncertainty associated with microsome isolations for in vitro assays, 10^6 dpm of [20-^3H3]taxa-4(5),11(12)-diene (16 Ci/mol) or [20-^3H2]taxa-4(20),11(12)-diene-5-α-ol (4.0 Ci/mol), or other taxoid substrate were added directly to the cell suspension to assay conversion in vivo. After 12 hours of incubation at 30° C. with agitation (250 rpm), the mixture was treated for 15 minutes in a sonication bath and extracted 3 times with 2 mL diethyl ether to insure isolation of the biosynthetic products. These ether extracts, containing residual substrate and derived product(s), were concentrated to dryness, resuspended in 200 μL of CH3CN, and filtered. These samples were analyzed by radio-HPLC (Hefner et al., Chemistry and Biology 3:479–489, 1996) using a 4.6 mm i.d.×250 mm column of Econosil C18, 5 μ (Alltech, Deerfield, Ill.) with a gradient of CH3CN in H2O from 0% to 85% (10 minutes at 1 mL/minute), then to 100% CH3CN over 40 minutes.

[3] = In vivo assay of yeast cells expressing recombinant oxygenases, radio-HPLC, substrate taxadien-5α-ol; assay type: cell-based, Saccharomyces cerevisiae; settings: for product identified HPLC peak: assayed with Taxadien5αol, graded symbols, key not given
From the text: as §1, §2, §3, §4

[4] = In vivo screening of functionally expressed clones in yeast with taxoid substrates (general statements); assay type: cell-based, Saccharomyces cerevisiae
From the text: as §1, §2
(§5) Transformed yeast cells that functionally express a recombinant cytochrome P450 gene from Taxus (by CO-difference spectrum) were tested in vivo for their ability to oxygenate (hydroxylate or epoxidize) taxoid substrates fed exogenously, thereby eliminating the need for microsome isolation for such a preliminary in vitro assay. […] The ether extracts resulting from these incubations were analyzed by radio-HPLC. Several clones converted the taxadienyl-5α-yl acetate substrate to a more polar product.
as §3, with “medium. […]” for “medium.”

[5] = In vivo assay of yeast cells expressing recombinant oxygenases, radio-HPLC, substrate taxadienyl acetate; assay type: cell-based, Saccharomyces cerevisiae; settings: for product identified HPLC peak: assayed with Taxadienyl Ac, graded symbols, key not given
Description: as §5, §3, §4

[6] = yeast transformants, radio-HPLC and GC-MS

Molecule | CO diff. spec. [1] | product identified HPLC peak [2] | product formed from taxadien-5α-ol [3, 6] | enzyme function assigned from screening ([4]; taxadienol and taxadienyl acetate as test substrates) | product formed from taxadien-5α-yl acetate [5, 6] | CO-difference spectrum [1] | product identified HPLC peak [3] | oxygenation of taxoid substrates ([4]; in vivo) | product identified HPLC peak [5]
clone F14: Taxus cuspidata cytochrome P450 taxane 10β-hydroxylase, full-length clone, SEQ ID NO: 51 (nt) / 64 (aa) (protein, listed as Taxus cuspidata) MDSFIFLRSIGTKFGQLESSPAILSLTLAPILAIILLLLFRYNHRSSVKLPPGKLGFPLIGETIQLLRTLRSETPQKFFDDRLKKFGPVYMTSLIGHPTVVLCGPAGNKLVLSNEDKLVEMEGPKSFMKLIGEDSIVAKRGEDHRILRTALARFLGAQALQNYLGRMSSEIGHHFNEKWKGKDEVKVLPLVRGLIFSIASTLFFDVNDGHQQKQLHHLLETILVGSLSVPLDFPGTRYRKGLQARLKLDEILSSLIKRRRRDLRSGIASDDQDLLSVLLTFRDEKGNSLTDQGILDNFSAMFHASYDTTVAPMALIFKLLYSNPEYHEKVFQEQLEIIGNKKEGEEISWKDLKSMKYTWQAVQESLRMYPPVFGIFRKAITDIHYDGYTIPKGWRVLCSPYTTHLREEYFPEPEEFRPSRFEDEGRHVTPYTYVPFGGGLRTCPGWEFSKIEILLFVHHFVKNFSSYIPVDPNEKVLSDPLPPLPANGFSIKLFPRS | +++ | No | diol products | cytochrome P450 taxane-10β-hydroxylase | taxadien-diol monoacetate |  |  |  | 
clone F34: Taxus cuspidata cytochrome P450, outlying full-length clone, SEQ ID NO: 53 (nt) / 66 (aa) (protein, listed as Taxus cuspidata, X: residue not identified in the source; ends and bridges not checked) MAYPELLENLSGDRAQSPAIAAVLTILFLLGIFYILRGLRNNGRRLPPGPIPWPIVGNLHQLGKLPNRNLEELAKKHGPIMLMKLGSVPAVIVSSSAMAKEVLKTHDLVFASRPESAAGKYIAYNYKDIVFSPYGPYWRQMKKICVVELLNARRIESLRSVREEEVSVIIRSVWEKSKQGAVAVNLSKTLSSLTQGLMLQIFSSNDDGGNSSVTAIKEMMSEVSETAGAFNIGDYFPWMDWMDLQGIQRRMTKAHDYFDQVITKIIEQHQRTRAMEDTQQPKDIIDALLQMENTDGVTITMENIKAVVLGIFLGGAETTSTTLEWAMSAMLENPEVAKKVQEEIESVVGRKRVVKEMIWESMEYLQCVVKKTMRLYPAVPLLIPHESTQDCTVNGYFIPERTRILVNAWAIGKDPNVWDDALAFKPKRFLGXNVDLQKGKEFFDMVPFGAGRKGCPGASMAVVTMEHALAQLMHCFQWRIEGELDMSERLAASVQKKVDLCVLPQWRLTSSP | ++ | No |  |  |  | reliable CO-difference spectrum | No | does not transform the taxoid substrates to oxygenated products | 
clone F21: Taxus cuspidata cytochrome P450 oxygenase, full-length clone, SEQ ID NO: 44 (nt) / 57 (aa) (protein, listed as Taxus cuspidata) MLIEMDTFVQLESSPVLLSLTLTLILLFIFCSKQYRSSLKLPPGNMGFPLIGETIALASQTPDKFFGDRMKKFGKVFKTSLIGHPTIVLCGSSGNRFLLSNEEKLVRMFPPNSSSKLLGQDSVLGKIGEEHRIVRTALARCLGPQALQNYVSKMSSEIQRHINQKWKGKGEVKMLPLIRSLVFSIATSLFFGITDEQQQERLHHLLETVVTGLLCIPLDFPGTTFRKALHARSKLDEIMSSVIERRRNDLRLGAASSDQDLLSVLLTFKDERGNPFADKEILDNFSFLLHALYDTTISPLTLVFKLVSSNPECYENIAQEQLEILRNKKDGEDISWADLKDMKYTWQAVQETLRMCPPVYGNFRKALTDIHYDGYTIPKGWRILCSPYTTHSKEEYFDDPEKFRPSRFEEQGRDVAPYTFIPFGGGLRICPGREFAKMEILVFMHHFVKAFSSFIPVDPNEKISTDPLPSIPVNGFSINLVPRS | + | No |  |  |  |  |  |  | No
clone F31: Taxus cuspidata cytochrome P450 oxygenase, full-length clone, SEQ ID NO: 46 (nt) / 59 (aa) (protein, listed as Taxus cuspidata) MDALSLVNSTVAKFNEVTQLQASPAILSTALTAIAGIIVLLVITSKRRSSLKLPPGKLGLPFIGETLEFVKALRSDTLRQFVEEREGKFGRVFKTSLLGKPTVILCGPAGNRLVLSNEEKLLHVSWSAQIARILGLNSVAVKRGDDHRVLRVALAGFLGSAGLQLYIGKMSALIRNHINEKWKGKDEVNVLSLVRDLVMDNSAILFFNIYDKERKQQLHEILKIILASHFGIPLNIPGFLYRKALKGSLKRKKILSALLEKRKDELRSRLASSNQDLLSVLLSFRDERGKPLSDEAVLDNCFAMLDASYDTTTSQMTLILKMLSSNPECFEKVVQEQLEIASNKKEGEEITMKDIKAMKYTWQVLQESLRMLSPVFGTLRKTMNDINHDGYTIPKGWQVVWTTYSTHQKDIYFKQPDKFMPSRFEEEDGHLDAYTFVPFGGGRRTCPGWEYAKVEILLFLHHFVKAFSGYTPTDPHERICGYPVPLVPVKGFPIKLIARS | + | No |  |  |  |  | No |  | No
